The target of assay [1] is prostaglandin F2α receptor (FP), cDNA construct whose species the place does not tell.
Assay [2] shares this target. The source holds these as a separate data set.
Assay [3] deals with prostaglandin F2α receptor (FP). The assay can be described thus: [3H]PGF2α binding in COS cells co-transfected with FP and an FPRP variant construct. The conditions noted are these: 3.5 μg FP cDNA construct and 5 μg test cDNA construct.

B1: rat prostaglandin F2α receptor regulatory protein (FPRP) (protein)
chain: RVVRVPAGTLVRVVGTELVIPCNVSDYDGPSEQNFDWSFSSSGSSFVELASTWEVGFPAQQYRERLQRGDILLRRTANDAVELHIKNVQPSDQGHYKCSTPSTDATVQGNYEDTMQVKVLADALVVGPSSRPPPGLSLREGEPFELRCIASTTSPLHTHLALRWELHRGPVHRSILALSHEGRFHPGPGYEQRYHSGDVRLDTVGSDAYRLSVARALSADQGSYRCVVSEWITEQGSWQEIQEKAVEVATVVIQPTALQLAVPRTVSVTEGKDLDLSCNITTDRVDDVRPEVTWYFKKTPDTSLLASHMLARLDRDSLVHSSPHVALSHVDTRSYHLLVRDVSKENSGYYLCLVALWAPGHNRSWHKVAEAMSAPSGVSVTWLEPEYQVYLNASKVPGFSDDPTELQCRVIDTKRVDAGVRLTVSWYYRMNRRNDDVVASELLAVMDGDWTLRYGERSKQRAQDGEFIFSKEHTDTFSFRIQRTTEEDRGSYYCVVSAWTRQRNSSWVKSKDVFSKPVNIFWASEDSVLVVKARQPKPFFAAGNTFEMTCKVSSKNIKSPRYSVLITAEKPVGDLSSPNETKYIISLDQDSVVKLENWTDASRVDGVVLEKVQEDEFRYRMYQTQVSDAGLYRCMVTAWSPIGGSLWREAATSLSNPIEIDFQTSGPIFNASVHSDTLSVTRGDLIKLFCIVTVDGAVLDPDDMAFDVSWFAVHSFGLDKAPILLSSLDRKGVVTTGQRDWKSTVSLERVSVLEFLLQVHGSEDQDFGNYYCSVTPWVRSPTGSWQREAEIHSRPIFITVKMDVLNAFKYPLLIGVGLSTVIRLLSCLIGYCSSHWCCKKEVRETRRERRRLMSMEMD
In assay [1], B1 yielded an inhibition of ^3 H!PGF2α binding, saturation binding experiment of 60%. Also, in assay [2], the % control ^3 H!PGF2α binding, co-culture of FPRP transfected cells with FP transfected cells 1:1 was determined as 120 % control and the % control ^3 H!PGF2α binding, conditioned media from FPRP transfected cells on FP transfected cells came to 103 % control. Further, the “inhibitory activity of FPRP variant on [^3 H]PGF2α binding” value in assay [3] is “may be slightly more active at lower concentrations but does not inhibit quite as well as native FPRP (construct 232) at high concentrations”.

The record behind these values is US5747660A, “Nucleic acid encoding prostaglandin F2α receptor regulatory protein” (priority 1995, dated 1998).
